In patent US20120129720, “APTAMER THAT RECOGNIZES PEPTIDE” (KANAGAWA PREFECTURAL HOSPITAL ORGANIZATION, published 2012):

B1: X region SEQ 2336 (ssRNA)
RNA: GGGACGCUCACGUACGCUCAUCGAUUAGAAUACUCUUUGUGCGCCGUCGGCCUGAUCGUUCAGUGCCUGGACGUGCAGU
modifications: 3' A20 tail for capture
B2: X region SEQ 2324 (ssRNA)
RNA: GGGACGCUCACGUACGCUCAUGGUGUACUGUACCUAUUCGACACUUCUGUUGAUUAGUGAUCAGUGCCUGGACGUGCAGU
modifications: 3' A20 tail for capture
B3: X region SEQ 2322 (ssRNA)
RNA: GGGACGCUCACGUACGCUCAGUUGGUUGCUGUGCAGUCUGGGUGUCUUGGCUUUCGGAUGUCAGUGCCUGGACGUGCAGU
modifications: 3' A20 tail for capture
B4: X region SEQ 2339 (ssRNA)
RNA: GGGACGCUCACGUACGCUCAUGCUGAUCGUUCGGUGAAUCAUUUCCUUACCUACCUACGUUCAGUGCCUGGACGUGCAGU
modifications: 3' A20 tail for capture
B5: X region SEQ 2332 (ssRNA)
RNA: GGGACGCUCACGUACGCUCAUUAGACGUUCUCUACGUCCGUGCCGCCCUGAUCGAGCGACUCAGUGCCUGGACGUGCAGU
modifications: 3' A20 tail for capture
B6: X region SEQ 2329 (ssRNA)
RNA: GGGACGCUCACGUACGCUCAAAACCUGUGCUGAUCGCUGUUGGACAGUUCUACAUGCGCAUCAGUGCCUGGACGUGCAGU
modifications: 3' A20 tail for capture
B7: X region SEQ 2309 (ssRNA)
RNA: GGGACGCUCACGUACGCUCACUGGGCGACUAGGUGUACUGGCUAUCACGUUCUGGAUAAGUCAGUGCCUGGACGUGCAGU
modifications: 3' A20 tail for capture
B8: X region SEQ 2320 (ssRNA)
RNA: GGGACGCUCACGUACGCUCAGACGUUCAAGUAAAUUGGCCCUAUAUUUCGUUAUAGUAUGUCAGUGCCUGGACGUGCAGU
modifications: 3' A20 tail for capture
B9: X region SEQ 2326 (ssRNA)
RNA: GGGACGCUCACGUACGCUCAGGCUACUGGUCAGAGGUUUCCAGCAGAUUUCCUGCCUAAAUCAGUGCCUGGACGUGCAGU
modifications: 3' A20 tail for capture
B10: X region SEQ 2313 (ssRNA)
RNA: GGGACGCUCACGUACGCUCAGGUGUACUGUAACCUGCCUGCCACCUGCGGCUUCGCGGACUCAGUGCCUGGACGUGCAGU
modifications: 3' A20 tail for capture
B11: X region SEQ 2311 (ssRNA)
RNA: GGGACGCUCACGUACGCUCAAGACGGUGUACUGGCACUUUUACUUCAUUGAGUAGAAAUUCGUCAGUGCCUGGACGUGCAGU
modifications: 3' A20 tail for capture
B12: X region SEQ 2314 (ssRNA)
RNA: GGGACGCUCACGUACGCUCAAACUUGAUCCUGGUUUCCAGCAGUAUGCCGCGUGAUUUCGUCAGUGCCUGGACGUGCAGU
modifications: 3' A20 tail for capture
B13: X region SEQ 2318 (ssRNA)
RNA: GGGACGCUCACGUACGCUCAACUCCCUCUUUCGCGGGCUCCUUUCCGCAACACGACUGGCUCAGUGCCUGGACGUGCAGU
modifications: 3' A20 tail for capture
B14: X region SEQ 2321 (ssRNA)
RNA: GGGACGCUCACGUACGCUCAGCACUGCUUACGGGGUCUCCGGCAGUAUGCCCUGGUGUAUUCAGUGCCUGGACGUGCAGU
modifications: 3' A20 tail for capture
B15: X region SEQ 2338 (ssRNA)
RNA: GGGACGCUCACGUACGCUCAUGAGACUGAUCGUGACAACUCCUGUAUGUUCGAUCUCAUCUCAGUGCCUGGACGUGCAGU
modifications: 3' A20 tail for capture
B16: X region SEQ 2335 (ssRNA)
RNA: GGGACGCUCACGUACGCUCACAGGCUGAUCGCUUCUUUACGUCUAAGUAUUGACUUUAGCUCAGUGCCUGGACGUGCAGU
modifications: 3' A20 tail for capture
B17: X region SEQ 2317 (ssRNA)
RNA: GGGACGCUCACGUACGCUCAGGUUGAUCCCGUUCUUCUUGACUGGCGCCUUCAUGGAGUGUCAGUGCCUGGACGUGCAGU
modifications: 3' A20 tail for capture
B18: X region SEQ 2319 (ssRNA)
RNA: GGGACGCUCACGUACGCUCAAAAGUUUUGCACGUUCUCCCGGUGUCCUGGCGCUUGGCUGUCAGUGCCUGGACGUGCAGU
modifications: 3' A20 tail for capture
B19: X region SEQ 2337 (ssRNA)
RNA: GGGACGCUCACGUACGCUCAUCGUCGUAGGCGUACUGAUCGAAUCGUACUUACUAUUGCGUCAGUGCCUGGACGUGCAGU
modifications: 3' A20 tail for capture
B20: X region SEQ 2323 (ssRNA)
RNA: GGGACGCUCACGUACGCUCACUACAAUAAUAUUACCCCUUGUUUUCGUUUAGUCCGGGUUUCAGUGCCUGGACGUGCAGU
modifications: 3' A20 tail for capture
B21: X region SEQ 2328 (ssRNA)
RNA: GGGACGCUCACGUACGCUCAAAUUGUCUUCGCGUUGUCUUGAAUGGGUAAUAGUAGACGAUCAGUGCCUGGACGUGCAGU
modifications: 3' A20 tail for capture
B22: X region SEQ 2333 (ssRNA)
RNA: GGGACGCUCACGUACGCUCAAAUGACCCCGAUUCCCCUUUCGUGUUGUCUGAUCGCAGGCUCAGUGCCUGGACGUGCAGU
modifications: 3' A20 tail for capture
B23: X region SEQ 2330 (ssRNA)
RNA: GGGACGCUCACGUACGCUCACGCUUUAAUGAUCUGAUCGUGCUUCGCUGCGUAGUAUUGGUCAGUGCCUGGACGUGCAGU
modifications: 3' A20 tail for capture
B24: X region SEQ 2327 (ssRNA)
RNA: GGGACGCUCACGUACGCUCAAGACUCCUGUGUUUCGGGUGUACUGUCACGAUUCGUUGUCUCAGUGCCUGGACGUGCAGU
modifications: 3' A20 tail for capture
B25: X region SEQ 2315 (ssRNA)
RNA: GGGACGCUCACGUACGCUCAACCCGCGACUAGGUUUUCCUGGCGACCGUCCGGUAGUGUCAGUGCCUGGACGUGCAGU
modifications: 3' A20 tail for capture
B26: X region SEQ 2325 (ssRNA)
RNA: GGGACGCUCACGUACGCUCAUACUUCCGGGUGUACUGUAAGCCCUACGCUGGAGGGGCUCUCAGUGCCUGGACGUGCAGU
modifications: 3' A20 tail for capture
B27: X region SEQ 2310 (ssRNA)
RNA: GGGACGCUCACGUACGCUCAUGGUGGAUUGGUGCAUCUAUGUCUUCUUACUUGUUAUCAGUGCCUGGACGUGCAGU
modifications: 3' A20 tail for capture
B28: X region SEQ 2331 (ssRNA)
RNA: GGGACGCUCACGUACGCUCAGAGUCGUUAUCUCCUGUACUAAUCACCUACUGAUCGAGCAUCAGUGCCUGGACGUGCAGU
modifications: 3' A20 tail for capture
B29: X region SEQ 2316 (ssRNA)
RNA: GGGACGCUCACGUACGCUCACAACUUGUAUUGUCCGGGUGUACUGUACCGAAACUCGUGAUCAGUGCCUGGACGUGCAGU
modifications: 3' A20 tail for capture
B30: X region SEQ 2334 (ssRNA)
RNA: GGGACGCUCACGUACGCUCACACCUAGAGCCUGAACUGCCUAAGCGCUGAUCGGCAUUUAUCAGUGCCUGGACGUGCAGU
modifications: 3' A20 tail for capture

Target: T1, His-MIF (His-tag/T7 gene 10 leader/Xpress-MIF fusion) (UniProt P14174 P14174:1-115)
T1 chain: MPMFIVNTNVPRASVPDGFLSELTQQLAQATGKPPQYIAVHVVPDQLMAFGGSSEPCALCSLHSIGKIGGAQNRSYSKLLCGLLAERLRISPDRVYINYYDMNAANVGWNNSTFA
Experiment: SPR; data not shown
Conditions: MIF 115 aa; ATGen

Binding result, binds:
B1, B2, B3, B4, B5, B6, B7, B8, B9, B10, B11, B12, B13, B14, B15, B16, B17, B18, B19, B20, B21, B22, B23, B24, B25, B26, B27, B28, B29, B30
